From patent publication US20260008817A1, “CYCLIC PEPTIDE OR SALT THEREOF, AND USES THEREOF” (FUJIFILM Corporation, priority 2023, published 2026)
Positions of bridges follow the written chain, without caps; N, C: chain ends. No end group written: not given here. COCH2 = acetyl group that carries the bridge

Target: T1, Recombinant Human FGFR1 alpha (IIIc) Fc Chimera Protein (Homo sapiens, UniProt P11362)
T1 construct: purchased R&D systems 658-FR-050
Experiment: ELISA binding affinity of enzymatically synthesized peptide to FGFR
Conditions: ELISA luminescence signal at 10 nmol/L peptide, SEQ ID NO: 239 standardized to 1; enzyme synthesis product
Method: The binding affinity of the peptide to FGFR was evaluated using an ELISA method.
The peptide used for the evaluation was enzymatically synthesized by the following method.
First, a fusion peptide (SEQ ID NO: 25) in which a translation enhancing sequence (SEQ ID NO: 22), a peptide, a Myc tag (SEQ ID NO: 23), and a HiBiT tag (SEQ ID NO: 24) were linked in this order was designed. Next, a template DNA sequence (SEQ ID NO: 26) was designed in which a T7 promoter sequence, a Shine-Dalgarno sequence, a sequence necessary for transcription and translation initiation, such as a start codon (ATG), was provided on the 5′ terminal side of the DNA sequence encoding the fused peptide, and a stop codon group was provided on the 3′ terminal side thereof. In a case where the triplet TAG codon is included in the template DNA sequence, the above-described codon is assigned to the codon of chloroacetylated lysine, and thus, the peptide encoded by the above-described DNA sequence is a cyclic peptide in which a thiol group of cysteine and a chloroacetyl group of chloroacetylated lysine spontaneously form a thioether bond.
The cell-free enzymatic synthesis of the polypeptide was performed in a translation solution containing a template DNA, PUREfrex 2.0 (GeneFrontier, PF201-0.25-5), and Aminoacyl tRNA (1). 1.75 μL ([…]) of the template DNA prepared to 50 ng/μL, 2.5 μL of PUREfrex 2.0 Solution I, 0.25 μL of Solution II, 0.5 μL of Solution III, and a dried product of Aminoacyl tRNA (1) (final concentration: 0.5 ng/μL) were mixed and mixture was subjected to a reaction at 37° C. for 1 hour.
The concentration of the enzymatically synthesized peptide was measured using the peptide diluted with Can Get Signal Immunoreaction Enhancer Solution I (TOYOBO, NKB-101), Nano-Glo HiBiT Lytic Detection System (Promega, N3040), and a chemical synthetic peptide for a calibration curve having a known concentration (SEQ ID NO: 33) according to the standard protocol of the Nano-Glo HiBiT Lytic Detection System.
The binding affinity of the enzymatically synthesized peptide to FGFR was measured by evaluating the amount of the peptide bound to FGFR by ELISA.
First, 5 ng of Recombinant Human FGFR1 alpha (IIIc) Fc Chimera Protein (R&D systems, 658-FR-050) was immobilized in each well of a 96-well plate, and blocked with Pierce Protein-Free (PBS) Blocking Buffer (Thermo, 37572), and a peptide diluted with Can Get Signal Immunoreaction Enhancer Solution I (TOYOBO, NKB-101) was then added and reacted at room temperature for 3 hours. After washing with 0.05% Tween 20-containing phosphate buffered saline (PBS), an anti-Myc antibody (Cell Signaling, 14038S) diluted with Can Get Signal Immunoreaction Enhancer Solution II (TOYOBO, NKB-101) was added and reacted at room temperature for 2 hours. After washing with 0.05% Tween 20-containing PBS, SuperSignal ELISA Femto Substrate (Thermo, 37075) was added, and the luminescence amount was measured. The dose-response relationship was calculated from using the difference between the luminescence amount in the well in which FGFR was immobilized and the luminescence amount in the well in which FGFR was not immobilized, and the concentration of the peptide at the time of reaction, and the binding affinity to FGFR was evaluated according to the following evaluation criteria. The evaluation result preferably satisfies the evaluation criteria A, B, or C.
In a case where a value of a luminescence signal emitted by the cyclic peptide set forth in SEQ ID NO: 239 at a reaction concentration of 10 nmol/L is standardized to 1, evaluation criteria of the luminescence signal value emitted by the peptide at a reaction concentration of 10 nmol/L is as follows. • A: 0.7 or more • B: 0.5 or more and less than 0.7 • C: 0.1 or more and less than 0.5 • D: less than 0.1.

T1 sequence (P11362 with tags, fused parts or gaps limits assumed): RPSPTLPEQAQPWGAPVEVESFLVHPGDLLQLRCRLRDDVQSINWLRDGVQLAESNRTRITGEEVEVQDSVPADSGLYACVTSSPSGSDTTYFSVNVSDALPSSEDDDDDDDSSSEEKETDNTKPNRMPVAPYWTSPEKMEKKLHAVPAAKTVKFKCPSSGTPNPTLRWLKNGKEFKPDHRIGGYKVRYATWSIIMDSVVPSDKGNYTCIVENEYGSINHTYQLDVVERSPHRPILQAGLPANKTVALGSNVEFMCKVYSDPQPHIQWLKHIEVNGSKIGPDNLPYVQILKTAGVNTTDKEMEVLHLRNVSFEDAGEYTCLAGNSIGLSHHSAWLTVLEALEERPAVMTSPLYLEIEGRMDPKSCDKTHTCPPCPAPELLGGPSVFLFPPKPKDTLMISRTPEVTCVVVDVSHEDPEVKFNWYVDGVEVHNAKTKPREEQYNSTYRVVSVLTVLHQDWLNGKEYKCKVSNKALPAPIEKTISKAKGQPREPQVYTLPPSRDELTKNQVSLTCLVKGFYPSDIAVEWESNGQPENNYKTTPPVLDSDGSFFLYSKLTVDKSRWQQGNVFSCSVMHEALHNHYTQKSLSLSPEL

Evaluation result of binding affinity to FGFR	Substance
A (0.7 or more)	105 (ICVYTFDALAHSLHAALTKI; Description of Artificial Sequence: Cyclic peptide) [compound 105]
A (0.7 or more)	104 (ICVYTFDAGAHSLHAALTKI; Description of Artificial Sequence: Cyclic peptide) [compound 104]
C (0.1 or more and less than 0.5)	121 (ICVYTFDAHFHSLHAALTKI; Description of Artificial Sequence: Cyclic peptide) [compound 121]
C (0.1 or more and less than 0.5)	55 (ICAYTFDAHAHSLHAALTK(COCH2)I; thioether 2-19 (inferred)) [compound 55]
A (0.7 or more)	322 (CVYTFDAHAHSLDAALTK(COCH2)I; thioether 1-18 (inferred)) [compound 322]
A (0.7 or more)	50 (TCVYTFDAHAHSLHAALTK(COCH2)I; thioether 2-19 (inferred)) [compound 50]
C (0.1 or more and less than 0.5)	268 (SCIYQWDYVHWPIKL; Description of Artificial Sequence: Cyclic peptide) [compound 268]
C (0.1 or more and less than 0.5)	226 (ICVYTFDAHAHSLHAALTK(COCH2)L; thioether 2-19 (inferred)) [compound 226]
A (0.7 or more)	303 (ICVYTFDAHAHSLDDALTK(COCH2)V; thioether 2-19 (inferred)) [compound 303]
A (0.7 or more)	291 (ICVYTFDAHAHSLDDALTK(COCH2)I; thioether 2-19 (inferred)) [compound 291]
A (0.7 or more)	187 (ICVYTFDAHAHSLSAALTK(COCH2)I; thioether 2-19 (inferred)) [compound 187]
A (0.7 or more)	306 (ICVYTFDAHAHSLDDALNK(COCH2)Q; thioether 2-19 (inferred)) [compound 306]
C (0.1 or more and less than 0.5)	127 (ICVYTFDAHDHSLHAALTKI; Description of Artificial Sequence: Cyclic peptide) [compound 127]
C (0.1 or more and less than 0.5)	195 (ICVYTFDAHAHSLHVALTK(COCH2)I; thioether 2-19 (inferred)) [compound 195]
C (0.1 or more and less than 0.5)	96 (ICVYTFDNHAHSLHAALTK(COCH2)I; thioether 2-19 (inferred)) [compound 96]
A (0.7 or more)	318 (FCVYTFDAHAHSLDDALTK(COCH2)Q; thioether 2-19 (inferred)) [compound 318]
A (0.7 or more)	325 (ICVYTFDANAHSLDDALTK(COCH2)I; thioether 2-19 (inferred)) [compound 325]
C (0.1 or more and less than 0.5)	270 (QCWWTLQVWSYPFHKH; Description of Artificial Sequence: Cyclic peptide) [compound 270]
A (0.7 or more)	316 (FCVYTFDAHAHSLDAALTK(COCH2)Q; thioether 2-19 (inferred)) [compound 316]
B (0.5 or more and less than 0.7)	171 (ICVYTFDAHAHSSHAALTK(COCH2)I; thioether 2-19 (inferred)) [compound 171]
A (0.7 or more)	278 (ICPLYGDQGQAWQYGWK(COCH2)L; thioether 2-17 (inferred)) [compound 278]

Evaluation result of binding affinity to FGFR	Substance
B (0.5 or more and less than 0.7)	225 (ICVYTFDAHAHSLHAALTK(COCH2)A; thioether 2-19 (inferred)) [compound 225]
A (0.7 or more)	112 (ICVYTFDAQAHSLHAALTKI; Description of Artificial Sequence: Cyclic peptide) [compound 112]
C (0.1 or more and less than 0.5)	259 (TCNIWQFNPAARWGFHLVYK(COCH2)Y; thioether 2-20 (inferred)) [compound 259]
C (0.1 or more and less than 0.5)	110 (ICVYTFDAWAHSLHAALTKI; Description of Artificial Sequence: Cyclic peptide) [compound 110]
C (0.1 or more and less than 0.5)	81 (ICVYTFGAHAHSLHAALTK(COCH2)I; thioether 2-19 (inferred)) [compound 81]
A (0.7 or more)	49 (SCVYTFDAHAHSLHAALTK(COCH2)I; thioether 2-19 (inferred)) [compound 49]
A (0.7 or more)	315 (FCVYTFDAHAHSLDDALNK(COCH2)I; thioether 2-19 (inferred)) [compound 315]
A (0.7 or more)	136 (ICVYTFDAHAVSLHAALTKI; Description of Artificial Sequence: Cyclic peptide) [compound 136]
A (0.7 or more)	310 (ICVYTFDAHAQSLDAALTK(COCH2)I; thioether 2-19 (inferred)) [compound 310]
C (0.1 or more and less than 0.5)	246 (PCIYTFDQSAIKYKIGFVLRK(COCH2)V; thioether 2-21 (inferred)) [compound 246]
C (0.1 or more and less than 0.5)	122 (ICVYTFDAHYHSLHAALTKI; Description of Artificial Sequence: Cyclic peptide) [compound 122]
A (0.7 or more)	39 (ACVYTFDAHAHSLHAALTK(COCH2)I; thioether 2-19 (inferred)) [compound 39]
C (0.1 or more and less than 0.5)	128 (ICVYTFDAHEHSLHAALTKI; Description of Artificial Sequence: Cyclic peptide) [compound 128]
B (0.5 or more and less than 0.7)	147 (ICVYTFDAHAHALHAALTK(COCH2)I; thioether 2-19 (inferred)) [compound 147]
C (0.1 or more and less than 0.5)	173 (ICVYTFDAHAHSEHAALTK(COCH2)I; thioether 2-19 (inferred)) [compound 173]
C (0.1 or more and less than 0.5)	93 (ICVYTFDVHAHSLHAALTK(COCH2)I; thioether 2-19 (inferred)) [compound 93]
A (0.7 or more)	176 (ICVYTFDAHAHSLAAALTK(COCH2)I; thioether 2-19 (inferred)) [compound 176]
C (0.1 or more and less than 0.5)	59 (ICYYTFDAHAHSLHAALTK(COCH2)I; thioether 2-19 (inferred)) [compound 59]
C (0.1 or more and less than 0.5)	150 (ICVYTFDAHAHILHAALTK(COCH2)I; thioether 2-19 (inferred)) [compound 150]
C (0.1 or more and less than 0.5)	163 (ICVYTFDAHAHSGHAALTK(COCH2)I; thioether 2-19 (inferred)) [compound 163]
